The source of these data is patent publication US20160280796A1.

Assay [1] has as its target human CD3 (CD3ε of the TCR/CD3 complex) on purified human CD3 T cells (human) (UniProt P07766). In words: flow cytometry on CD3+ Jurkat cells, 10 µg/mL, FL4: anti-His mouse mAb + APC anti mIgG, RED2-HLin (right panel); unstained Jurkat 7.61. In general terms: Flow cytometry measures light scatter and fluorescence of single cells or particles in a stream.
Assay [2] shares this target. In words: flow cytometry on purified human CD3 T cells, antibody at 0.1 µg/ml.
The target is the same in assay [3]. In words: flow cytometry on purified human CD3 T cells, antibody at 10 µg/ml.
Assay [4] has the same target. In words: flow cytometry on purified human CD3 T cells, antibody at 1 µg/ml.
Assay [5] has the same target. Put plainly: flow cytometry on CD3+ Jurkat cells, 10 µg/mL, FL1: anti-His FITC, GRN-HLin (left panel). DOUBTFUL: the printed value disagrees with the histogram, which lies right of ESK1+L2K, and equals the second row of the left table of FIGURE 8.

B1: control bi-specific antibody (irrelevant human IgG1 antibody ET901 as scFv replacing ESK1 scFv, with anti-CD3 scFv) (bispecific antibody, part only; not given: ET901 control scFv, part only)
chain, part: DVQLVQSGAEVKKPGASVKVSCKASGYTFTRYTMHWVRQAPGQGLEWIGYINPSRGYTNYADSVKGRFTITTDKSTSTAYMELSSLRSEDTATYYCARYYDDHYCLDYWGQGTTVTVSSGEGTSTGSGGSGGSGGADDIVLTQSPATLSLSPGERATLSCRASQSVSYMNWYQQKPGKAPKRWIYDTSKVASGVPARFSGSGSGTDYSLTINSLEAEDAATYYCQQWSSNPLTFGGGTKVEIK
On to B1, for which the Geom. Mean worked out at 94.3 in assay [1] and 47.9 in assay [5]. Further, the values for the Median fluorescence intensity (MFI) in assay [2], in assay [3] and in assay [4] were 26.2 MFI, 188 MFI and 153 MFI, respectively.
